The supplement of paper PMC10724198
± gives the standard deviation of the averaged measurements.

Test system: Saccharomyces cerevisiae
Assay: protein stability index of tFT-peptide fusion (C-terminal peptide) (PSI (0-1 scale)); higher = more stable (slower turnover)
Settings: temperature: 30 C
Method: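 MPS profiling in S. cerevisiae of the yeast C-terminome library: the last 12 aa of each annotated ORF are fused to the C-terminus of a sfGFP-mCherry timer, after a GGGS linker. Cells are FACS-sorted into 8 mCherry/sfGFP bins and deep-sequenced. PSI runs from 0 (unstable) to 1 (stable); wild type and das1Δ backgrounds, two technical replicates each.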

[1] = genetic background: das1 deletion

Sequence: PEDCKDDKYFVN [LCB2 C-terminal 12 aa]
- protein stability index [1]: 0.6832 ± 0.0068
- protein stability index (genetic background: wild type): 0.685 ± 0.04

Sequence: PFKERAVFLLVL [YDR524W-C C-terminal 12 aa]
- protein stability index [1]: 0.523 ± 0.016
- protein stability index (genetic background: wild type): 0.361 ± 0.0078

Sequence: PGVDVEVVVASN [RPS20 C-terminal 12 aa]
- protein stability index [1]: 0.669 ± 0.0061
- protein stability index (genetic background: wild type): 0.702 ± 0.038

Sequence: PIAAIKEILDQV [DSF1 C-terminal 12 aa]
- protein stability index [1]: 0.666 ± 0.0092
- protein stability index (genetic background: wild type): 0.639 ± 0.03

Sequence: PIIKEILQEYES [DNA2 C-terminal 12 aa]
- protein stability index [1]: 0.6914 ± 0.0039
- protein stability index (genetic background: wild type): 0.729 ± 0.013

Sequence: PIKLKSDEEMII [YFL040W C-terminal 12 aa]
- protein stability index [1]: 0.707 ± 0.025
- protein stability index (genetic background: wild type): 0.6724 ± 0.0042

Sequence: PILCTSEDFMGW [RGP1 C-terminal 12 aa]
- protein stability index [1]: 0.709 ± 0.0088
- protein stability index (genetic background: wild type): 0.732 ± 0.049

Sequence: PKWTDCEGDLTT [DET1 C-terminal 12 aa]
- protein stability index [1]: 0.712 ± 0.011
- protein stability index (genetic background: wild type): 0.7387 ± 0.0071

Sequence: PLKDLDPNAFRG [YOX1 C-terminal 12 aa]
- protein stability index [1]: 0.6861 ± 0.006
- protein stability index (genetic background: wild type): 0.692 ± 0.021

Sequence: PLNDQVCPNSPL [YLR154W-F C-terminal 12 aa]
- protein stability index [1]: 0.7273 ± 0.0053
- protein stability index (genetic background: wild type): 0.694 ± 0.033

Sequence: PLYSMVAGENSL [SPO23 C-terminal 12 aa]
- protein stability index [1]: 0.678 ± 0.021
- protein stability index (genetic background: wild type): 0.688 ± 0.023

Sequence: PMIENLRFPNAR [YEH2 C-terminal 12 aa]
- protein stability index [1]: 0.688 ± 0.023
- protein stability index (genetic background: wild type): 0.7039 ± 0.0046

Sequence: PMIKRQCEIIQF [TIP41 C-terminal 12 aa]
- protein stability index [1]: 0.645 ± 0.029
- protein stability index (genetic background: wild type): 0.676 ± 0.0097

Sequence: PPAGIPPPPPLP [PAN1 C-terminal 12 aa]
- protein stability index [1]: 0.719 ± 0.0093
- protein stability index (genetic background: wild type): 0.711 ± 0.025

Sequence: PPSDPSSIKIRN [KIN28 C-terminal 12 aa]
- protein stability index [1]: 0.71109 ± 0.00022
- protein stability index (genetic background: wild type): 0.729 ± 0.0076

Sequence: PQENHDNKEEQS [HEK2 C-terminal 12 aa]
- protein stability index [1]: 0.676 ± 0.019
- protein stability index (genetic background: wild type): 0.688 ± 0.033

Sequence: PQGAGRGRGMPM [CCT7 C-terminal 12 aa]
- protein stability index [1]: 0.69 ± 0.0089
- protein stability index (genetic background: wild type): 0.678 ± 0.034

Sequence: PQMDDHTVISEI [MLO127 C-terminal 12 aa]
- protein stability index [1]: 0.745 ± 0.029
- protein stability index (genetic background: wild type): 0.6854 ± 0.006

Sequence: PRDEQDSRKRNR [IBD2 C-terminal 12 aa]
- protein stability index [1]: 0.699 ± 0.0085
- protein stability index (genetic background: wild type): 0.7315 ± 0.0047

Sequence: PREILLRLMNDK [PRP6 C-terminal 12 aa]
- protein stability index [1]: 0.726 ± 0.024
- protein stability index (genetic background: wild type): 0.704 ± 0.096

Sequence: PRRSDLRPEFAE [VMA9 C-terminal 12 aa]
- protein stability index [1]: 0.672 ± 0.022
- protein stability index (genetic background: wild type): 0.665 ± 0.018

Sequence: PSAYVLFYERIF [UBP5 C-terminal 12 aa]
- protein stability index [1]: 0.71 ± 0.015
- protein stability index (genetic background: wild type): 0.678 ± 0.018

Sequence: PSFSNSQWRIIF [YOR169C C-terminal 12 aa]
- protein stability index [1]: 0.714 ± 0.021
- protein stability index (genetic background: wild type): 0.694 ± 0.016

Sequence: PSYAVCDNILVT [YOL013W-B C-terminal 12 aa]
- protein stability index [1]: 0.67 ± 0.04
- protein stability index (genetic background: wild type): 0.653 ± 0.017

Sequence: PTFLIPLRLCFV [EMA19 C-terminal 12 aa]
- protein stability index [1]: 0.329 ± 0.02
- protein stability index (genetic background: wild type): 0.336 ± 0.0072

Sequence: PTPPTPPTPPQQ [ECM19 C-terminal 12 aa]
- protein stability index [1]: 0.701 ± 0.014
- protein stability index (genetic background: wild type): 0.687 ± 0.027

Sequence: PTTRPYIYEPRK [ELA1 C-terminal 12 aa]
- protein stability index [1]: 0.696 ± 0.011
- protein stability index (genetic background: wild type): 0.662 ± 0.017

Sequence: PTWQIVEDIRNT [PMT3 C-terminal 12 aa]
- protein stability index [1]: 0.728 ± 0.025
- protein stability index (genetic background: wild type): 0.718 ± 0.038

Sequence: PVIKKSKKCAIL [CDC42 C-terminal 12 aa]
- protein stability index [1]: 0.757 ± 0.0059
- protein stability index (genetic background: wild type): 0.6072 ± 0.0055

Sequence: PVRHQTGMHFCI [YHR032W-A C-terminal 12 aa]
- protein stability index [1]: 0.721 ± 0.009
- protein stability index (genetic background: wild type): 0.682 ± 0.029
